Substrate: C[C@]1(Cn2ccnn2)[C@H](C(=O)O)N2C(=O)C[C@H]2S1(=O)=O
Details: Enterobacter cloacae
Description: Activity of Enterobacter cloacae beta-lactamase P99 by spectrophotometry

B1: Beta-lactamase (Enterobacter cloacae), P05364 (protein)
chain: MMRKSLCCALLLGISCSALATPVSEKQLAEVVANTITPLMKAQSVPGMAVAVIYQGKPHYYTFGKADIAANKPVTPQTLFELGSISKTFTGVLGGDAIARGEISLDDAVTRYWPQLTGKQWQGIRMLDLATYTAGGLPLQVPDEVTDNASLLRFYQNWQPQWKPGTTRLYANASIGLFGALAVKPSGMPYEQAMTTRVLKPLKLDHTWINVPKAEEAHYAWGYRDGKAVRVSPGMLDAQAYGVKTNVQDMANWVMANMAPENVADASLKQGIALAQSRYWRIGSMYQGLGWEMLNWPVEANTVVEGSDSKVALAPLPVAEVNPPAPPVKASWVHKTGSTGGFGSYVAFIPEKQIGIVMLANTSYPNPARVEAAYHILEALQ
  Km: 300 µM
